Assay results: patent US20170183415A1 (Novartis, published 2017)

T1: human CD123-Fc (human, UniProt P26951 19-305, limits assumed)
T1 construct: Staining reagent; not shown: Fc part
T1 sequence (looked up): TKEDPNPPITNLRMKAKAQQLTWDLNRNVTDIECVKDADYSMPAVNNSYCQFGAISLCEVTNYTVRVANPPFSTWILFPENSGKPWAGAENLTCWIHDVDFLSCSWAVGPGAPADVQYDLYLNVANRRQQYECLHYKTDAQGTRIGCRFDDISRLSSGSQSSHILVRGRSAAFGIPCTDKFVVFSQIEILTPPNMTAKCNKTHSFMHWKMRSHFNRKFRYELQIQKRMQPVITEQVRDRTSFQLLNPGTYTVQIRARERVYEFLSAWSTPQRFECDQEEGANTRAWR

T2: immobilized CD123 (UniProt P26951 19-305, limits assumed)
T2 construct: also called IL-3Rα; IL3Rα
T2 sequence (looked up): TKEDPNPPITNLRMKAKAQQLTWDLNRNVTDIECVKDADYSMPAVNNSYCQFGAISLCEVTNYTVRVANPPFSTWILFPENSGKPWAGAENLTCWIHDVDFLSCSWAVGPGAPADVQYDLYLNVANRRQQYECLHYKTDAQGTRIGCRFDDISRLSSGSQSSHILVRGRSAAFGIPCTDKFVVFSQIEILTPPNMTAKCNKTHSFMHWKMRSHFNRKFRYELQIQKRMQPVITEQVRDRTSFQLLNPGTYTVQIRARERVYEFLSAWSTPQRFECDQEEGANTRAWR


Target: T1, human CD123-Fc
Test: flow cytometry of transduced T cells (day 10) stained with human CD123-Fc, then anti-human Fc PE; unit not given
Source text: To detect the transduction efficiency and level of expression of each construct, transduced T cells on day 10 of expansion were stained with (i) Alexa fluor 647 goat anti-mouse F(ab) reagent, (ii) FITC goat anti-human F(ab), or (iii) human CD123-Fc primary followed by anti-human Fc PE.

Binder	Expression by CD123-Fc
CD123 CAR 1172 (mouse anti-human CD123 CAR, scFv 32716 light-to-heavy, CD8 hinge, 4-1BB, CD3zeta) (other, Chimeric antigen receptor expressed on human T cells; also called C1172; clone 72) GSDIVLTQSPASLAVSLGQRATISCRASESVDNYGNTFMHWYQQKPGQPPKLLIYRASNLESGIPARFSGSGSRTDFTLTINPVEADDVATYYCQQSNEDPPTFGAGTKLELKGGGGSGGGGSSGGGSQIQLVQSGPELKKPGETVKISCKASGYIFTNYGMNWVKQAPGKSFKWMGWINTYTGESTYSADFKGRFAFSLETSASTAYLHINDLKNEDTATYFCARSGGYDPMDYWGQGTSVTVSSASSGTTTPAPRPPTPAPTIASQPLSLRPEACRPAAGGAVHTRGLDFACDIYIWAPLAGTCGVLLLSLVITLYCKRGRKKLLYIFKQPFMRPVQTTQEEDGCSCRFPEEEEGGCELRVKFSRSADAPAYKQGQNQLYNELNLGRREEYDVLDKRRGRDPEMGGKPRRKNPQEGLYNELQKDKMAEAYSEIGMKGERRRGKGHDGLYQGLSTATKDTYDALHMQALPPR	32.3
CAR 7 Full (humanized CD123 CAR) (other, Chimeric antigen receptor on transduced human T cells; also called WW88-24LB) QIQLVQSGAEVKKPGASVKVSCKASGYIFTNYGMNWVRQAPGQRLEWMGWINTYTGESTYSADFKGRVTITLDTSASTAYMELSSLRSEDTAVYYCARSGGYDPMDYWGQGTTVTVSSGGGGSGGGGSGGGGSGGGGSDIVLTQSPDSLAVSLGERATINCRASESVDNYGNTFMHWYQQKPGQPPKLLIYRASNLESGVPDRFSGSGSRTDFTLTISSLQAEDVAVYYCQQSNEDPPTFGQGTKLEIKTTTPAPRPPTPAPTIASQPLSLRPEACRPAAGGAVHTRGLDFACDIYIWAPLAGTCGVLLLSLVITLYCKRGRKKLLYIFKQPFMRPVQTTQEEDGCSCRFPEEEEGGCELRVKFSRSADAPAYKQGQNQLYNELNLGRREEYDVLDKRRGRDPEMGGKPRRKNPQEGLYNELQKDKMAEAYSEIGMKGERRRGKGHDGLYQGLSTATKDTYDALHMQALPPR	51
CAR 5 - Full (humanized CD123 CAR) (other, Chimeric antigen receptor on transduced human T cells; also called GW86-29RB) QIQLVQSGSELKKPGASVKVSCKASGYIFTNYGMNWVRQAPGQGLEWMGWINTYTGESTYSADFKGRFVFSLDTSVSTAYLQINALKAEDTAVYYCARSGGYDPMDYWGQGTTVTVSSGGGGSGGGGSGGGGSGGGGSDIVLTQSPDSLAVSLGERATINCRASESVDNYGNTFMHWYQQKPGQPPKLLIYRASNLESGVPDRFSGSGSRTDFTLTISSLQAEDVAVYYCQQSNEDPPTFGQGTKLEIKTTTPAPRPPTPAPTIASQPLSLRPEACRPAAGGAVHTRGLDFACDIYIWAPLAGTCGVLLLSLVITLYCKRGRKKLLYIFKQPFMRPVQTTQEEDGCSCRFPEEEEGGCELRVKFSRSADAPAYKQGQNQLYNELNLGRREEYDVLDKRRGRDPEMGGKPRRKNPQEGLYNELQKDKMAEAYSEIGMKGERRRGKGHDGLYQGLSTATKDTYDALHMQALPPR	46.1
109375 CAR6 - Full (humanized CD123 CAR) (other, Chimeric antigen receptor; also called MW89-29GB) QIQLVQSGSELKKPGASVKVSCKASGYIFTNYGMNWVRQAPGQGLEWMGWINTYTGESTYSADFKGRFVFSLDTSVSTAYLQINALKAEDTAVYYCARSGGYDPMDYWGQGTTVTVSSGGGGSGGGGSGGGGSGGGGSEIVLTQSPATLSLSPGERATLSCRASESVDNYGNTFMHWYQQKPGQAPRLLIYRASNLESGIPARFSGSGSRTDFTLTISSLEPEDVAVYYCQQSNEDPPTFGQGTKLEIKTTTPAPRPPTPAPTIASQPLSLRPEACRPAAGGAVHTRGLDFACDIYIWAPLAGTCGVLLLSLVITLYCKRGRKKLLYIFKQPFMRPVQTTQEEDGCSCRFPEEEEGGCELRVKFSRSADAPAYKQGQNQLYNELNLGRREEYDVLDKRRGRDPEMGGKPRRKNPQEGLYNELQKDKMAEAYSEIGMKGERRRGKGHDGLYQGLSTATKDTYDALHMQALPPR	0.64
CAR 8 - Full (humanized CD123 CAR) (other, Chimeric antigen receptor on transduced human T cells; also called UL69-05CC) QIQLVQSGAEVKKPGASVKVSCKASGYIFTNYGMNWVRQAPGQRLEWMGWINTYTGESTYSADFKGRVTITLDTSASTAYMELSSLRSEDTAVYYCARSGGYDPMDYWGQGTTVTVSSGGGGSGGGGSGGGGSGGGGSEIVLTQSPATLSLSPGERATLSCRASESVDNYGNTFMHWYQQKPGQAPRLLIYRASNLESGIPARFSGSGSRTDFTLTISSLEPEDVAVYYCQQSNEDPPTFGQGTKLEIKTTTPAPRPPTPAPTIASQPLSLRPEACRPAAGGAVHTRGLDFACDIYIWAPLAGTCGVLLLSLVITLYCKRGRKKLLYIFKQPFMRPVQTTQEEDGCSCRFPEEEEGGCELRVKFSRSADAPAYKQGQNQLYNELNLGRREEYDVLDKRRGRDPEMGGKPRRKNPQEGLYNELQKDKMAEAYSEIGMKGERRRGKGHDGLYQGLSTATKDTYDALHMQALPPR	73.2

Target: T2, immobilized CD123
Test: ELISA, soluble scFv on immobilized CD123

Binder	EC50
parent mouse scFv (anti-CD123, clone 32716) (scFv, also called mouse Ctrl scFv) scFv: DIVLTQSPASLAVSLGQRATISCRASESVDNYGNTFMHWYQQKPGQPPKLLIYRASNLESGIPARFSGSGSRTDFTLTINPVEADDVATYYCQQSNEDPPTFGAGTKLELKGGGGSGGGGSSGGGSQIQLVQSGPELKKPGETVKISCKASGYIFTNYGMNWVKQAPGKSFKWMGWINTYTGESTYSADFKGRFAFSLETSASTAYLHINDLKNEDTATYFCARSGGYDPMDYWGQGTSVTVSS	1.1 to 2.6 nM
